Among the data in publication PMC2903434 are Kd values, retold here.

As usually defined, the Kd is the free concentration of one partner at which half of the binding sites on the other are occupied at equilibrium, for simple one-to-one binding. Low readings indicate tighter binding, high ones weaker binding.

The target of the assay is PAK1 kinase domain (K298R mutant), residues 250-545 from PAK-fl (UniProt Q13153).

Regarding “truncated autoinhibitory domain (trunc-AID, residues 83-137) from PAK1 (from UniProt Q13153 83-137) (domain or fragment)”, the Kd turned out to be 4 µM. In other words, the single-digit micromolar range.
